In paper PMC5939945 (ACS combinatorial science, 2017):

Experiments:
eIF4E = eIF4E (Homo sapiens, UniProt P06730); test: PPI cat-ELCCA chemiluminescent competition assay of eIF4E–4E-BP1; assay type: binding
[1] = molecular target: biotinylated eIF4E (eukaryotic translation initiation factor 4E), N-terminal HaloTag fusion (UniProt P06730); test: PPI cat-ELCCA
[2] = molecular target: biotinylated eIF4E (eukaryotic translation initiation factor 4E), N-terminal HaloTag fusion (UniProt P06730); test: ELISA

Sequence of biotinylated eIF4E (eukaryotic translation initiation factor 4E), N-terminal HaloTag fusion (P06730 whole entry, the tested form may be a part): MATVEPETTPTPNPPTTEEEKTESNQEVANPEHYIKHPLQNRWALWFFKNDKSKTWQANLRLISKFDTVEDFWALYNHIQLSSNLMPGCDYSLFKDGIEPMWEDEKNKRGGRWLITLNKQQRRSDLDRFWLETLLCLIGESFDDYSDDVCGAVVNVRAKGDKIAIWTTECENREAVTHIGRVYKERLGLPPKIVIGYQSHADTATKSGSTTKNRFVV
Sequence of unlabeled 4E-BP1 protein (Q13541 whole entry): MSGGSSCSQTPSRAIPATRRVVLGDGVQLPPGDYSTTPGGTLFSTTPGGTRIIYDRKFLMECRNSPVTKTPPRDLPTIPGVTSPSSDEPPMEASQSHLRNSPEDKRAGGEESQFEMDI
Sequence of eIF4E (P06730 2-217): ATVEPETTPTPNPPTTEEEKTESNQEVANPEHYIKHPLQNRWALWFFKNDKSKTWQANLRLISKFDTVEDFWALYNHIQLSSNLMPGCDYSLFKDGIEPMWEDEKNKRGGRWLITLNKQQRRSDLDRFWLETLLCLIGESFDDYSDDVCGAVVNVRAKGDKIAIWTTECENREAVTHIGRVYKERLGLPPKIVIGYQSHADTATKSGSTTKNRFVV
Sequence of eIF4E (Q13541 2-118 partner): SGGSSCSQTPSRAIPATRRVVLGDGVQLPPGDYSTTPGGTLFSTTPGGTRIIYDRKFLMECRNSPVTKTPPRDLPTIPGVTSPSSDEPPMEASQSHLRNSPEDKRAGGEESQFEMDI
Sequence of eIF4E (Q04637 whole entry partner, the tested form may be a part): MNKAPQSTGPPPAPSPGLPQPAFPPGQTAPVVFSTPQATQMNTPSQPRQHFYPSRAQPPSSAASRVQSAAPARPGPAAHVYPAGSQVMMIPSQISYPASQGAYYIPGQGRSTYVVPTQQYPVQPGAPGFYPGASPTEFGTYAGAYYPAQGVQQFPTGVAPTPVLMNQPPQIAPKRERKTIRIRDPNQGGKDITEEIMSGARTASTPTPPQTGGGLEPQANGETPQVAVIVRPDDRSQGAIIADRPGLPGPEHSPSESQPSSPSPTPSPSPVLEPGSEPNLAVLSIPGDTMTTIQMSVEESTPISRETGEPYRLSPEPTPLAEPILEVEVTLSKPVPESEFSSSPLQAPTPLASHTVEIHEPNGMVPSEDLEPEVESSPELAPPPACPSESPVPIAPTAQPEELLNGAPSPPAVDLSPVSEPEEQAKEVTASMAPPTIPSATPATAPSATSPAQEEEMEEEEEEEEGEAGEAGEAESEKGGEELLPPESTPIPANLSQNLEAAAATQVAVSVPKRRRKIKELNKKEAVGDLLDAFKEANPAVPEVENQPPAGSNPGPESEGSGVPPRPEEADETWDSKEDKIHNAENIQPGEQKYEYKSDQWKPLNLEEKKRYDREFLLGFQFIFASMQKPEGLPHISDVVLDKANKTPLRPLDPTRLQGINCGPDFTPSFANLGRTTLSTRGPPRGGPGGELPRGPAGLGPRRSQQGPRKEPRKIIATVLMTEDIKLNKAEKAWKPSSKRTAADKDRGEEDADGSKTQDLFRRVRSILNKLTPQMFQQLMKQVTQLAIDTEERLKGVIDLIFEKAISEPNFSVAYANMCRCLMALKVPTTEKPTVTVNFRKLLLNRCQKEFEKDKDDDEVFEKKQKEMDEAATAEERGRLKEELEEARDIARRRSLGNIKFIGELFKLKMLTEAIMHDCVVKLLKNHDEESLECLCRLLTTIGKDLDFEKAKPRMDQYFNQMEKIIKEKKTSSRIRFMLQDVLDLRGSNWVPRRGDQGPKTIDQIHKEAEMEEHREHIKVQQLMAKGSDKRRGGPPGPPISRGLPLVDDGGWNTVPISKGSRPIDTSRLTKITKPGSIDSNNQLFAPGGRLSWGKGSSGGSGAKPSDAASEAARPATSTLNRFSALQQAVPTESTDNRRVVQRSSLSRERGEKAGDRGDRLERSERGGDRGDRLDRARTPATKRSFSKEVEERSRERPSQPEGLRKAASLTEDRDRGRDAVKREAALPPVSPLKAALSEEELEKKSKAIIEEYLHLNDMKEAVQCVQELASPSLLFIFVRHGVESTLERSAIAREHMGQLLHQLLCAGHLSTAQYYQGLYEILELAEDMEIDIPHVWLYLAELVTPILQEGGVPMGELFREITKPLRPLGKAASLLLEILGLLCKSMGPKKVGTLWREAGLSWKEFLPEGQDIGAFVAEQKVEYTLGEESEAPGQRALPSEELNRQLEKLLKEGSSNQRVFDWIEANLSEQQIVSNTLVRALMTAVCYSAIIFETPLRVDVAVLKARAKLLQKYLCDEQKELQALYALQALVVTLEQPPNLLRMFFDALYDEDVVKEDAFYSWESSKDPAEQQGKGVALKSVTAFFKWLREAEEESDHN

Molecule | IC50 (eIF4E) [nM] | IC50 [1] [nM] | Kd [2] [nM]
O=C(O)c1ccc(N2C(=O)/C(=C\c3ccc(-c4ccc([N+](=O)[O-])cc4)o3)C=C2c2ccccc2)cc1 [4E1RCat] | 1800 ± 600 |  | 
unlabeled 4E-BP1 protein (from UniProt Q13541 1-118) (natural protein; other documents disagree on this pair) |  | 11 | 19
